# According to publication PMC553973:
# pKd: −log10 of the molar value.
# Target: fibronectin 70 kDa N-terminal fragment
# Assay: SPR; BIAcore X; FN 70 kDa fragment immobilised on a CM5 chip; HGF (30–500 nM) injected in HEPES saline pH 7.4 with 1 mM MgCl2, 2 mM CaCl2; equilibrium and Scatchard analysis; apparent Kd; n = 3
substance,measurement,value
hepatocyte growth factor (from UniProt P14210 32-728) (ligand),pKd,6.52
same,Kd of the high affinity site (two-site model),15 nM
same,Kd of the low affinity site (two-site model),4000 nM
